According to patent US20090137003A1:
pKd: −log10 of the molar value.

Biological target: RSV protein F (recombinant or purified F protein) (respiratory syncytial virus (RSV), strain not stated)
Experiment: SPR (Biacore), Fab on recombinant antigen

Fab fragments derived from commercially available Palivizumab (Synagis)
pKd: 8.42
koff: 0.000757 s⁻¹
kon: 200000 M⁻¹ s⁻¹
t1/2: 15 min
